Assay results: US11732029B2, “Methods and compositions for the treatment of wounds” (The University of Chicago, priority 2017, dated 2023)

Assays:
[1] = target: T1, VEGF-A165 (Homo sapiens, UniProt P15692); experiment: Recombinant GF binding to the vWF recombinant protein and A1 HBD peptide (ELISA); conditions: plate coated with vWF protein, A1 domain or HBD peptide, 1 μg/mL GF
T1 construct: All growth factors (GFs) and chemokines were purchased in their mature forms; purchased PeproTech; host or cells: Escherichia coli
T1 sequence (P15692 27-191 isoform P15692-4 limits assumed): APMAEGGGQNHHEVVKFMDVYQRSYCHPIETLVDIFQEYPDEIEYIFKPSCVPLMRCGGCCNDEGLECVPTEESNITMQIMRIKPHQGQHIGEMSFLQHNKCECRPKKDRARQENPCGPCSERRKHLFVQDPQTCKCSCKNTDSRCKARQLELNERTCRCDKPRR
Method: (§1) ELISA tests were performed as described above. In brief, ELISA plates were coated with 1 μg/mL of FL-vWF (WT or R1341Q), 1 μg/mL of vWF A1 recombinant protein (U-Protein Express) or 1 μg/mL of vWF A1 HBD peptide (sequence […], (SEQ ID NO:50) chemically synthesized by Genscript) at 37° C. overnight. After blocking with 2% BSA solution containing PBS-T, 1 μg/mL of the recombinant human proteins VEGF-A121, VEGF-A165, PlGF-1, PlGF-2, PDGF-BB, FGF-2, CXCL-12α and CXCL-12γ were added. 1 μg/mL of BSA served as non-binding protein control. Bound GF or chemokine was detected with biotinylated antibodies for human VEGF-A, PlGF, PDGF-BB, FGF-2, or CXCL-12 (R & D Systems). The antibodies were detected by streptavidin-HRP (R & D Systems). Color development and the absorbance measurement were done as described above.

[2] = target: T2, CXCL-12γ (Homo sapiens, UniProt P48061); experiment: as above; conditions: plate coated with vWF protein, A1 domain or HBD peptide, 1 μg/mL GF
T2 construct: All GFs and chemokines were purchased in their mature forms; purchased R & D Systems; host or cells: Escherichia coli
T2 sequence (P48061 22-119 isoform P48061-3): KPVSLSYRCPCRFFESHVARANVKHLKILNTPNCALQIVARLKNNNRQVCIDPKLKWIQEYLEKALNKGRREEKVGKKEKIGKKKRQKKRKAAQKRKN
Method: as §1

[3] = target: T3, PDGF-BB (Homo sapiens, UniProt P01127); experiment: as above; conditions: plate coated with vWF protein, A1 domain or HBD peptide, 1 μg/mL GF
T3 construct: All growth factors (GFs) and chemokines were purchased in their mature forms; purchased PeproTech; host or cells: Escherichia coli
T3 sequence (P01127 82-190 limits assumed): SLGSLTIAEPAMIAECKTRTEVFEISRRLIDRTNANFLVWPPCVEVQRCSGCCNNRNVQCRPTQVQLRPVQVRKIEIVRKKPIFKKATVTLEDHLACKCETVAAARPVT
Method: as §1

[4] = test system: human umbilical vein endothelial cells (HUVEC); experiment: Cell proliferation assay with vWF HBD, HUVEC; type: cell-based; conditions: vWF HBD coated plates, 72 hrs
Method: Cell proliferation assays were performed as previously reported1. Briefly, human lung fibroblasts (Lonza) were cultured using FGM-2 medium (Lonza) (1000 cells/well) or human umbilical vein endothelial cells (HUVEC, Lonza) were cultured using EGM-2 medium (Lonza) (1000 cells/well) on 1 μg/mL vWF HBD pre-coated 96-well plates (Tissue culture treated, Falcon). Cell numbers were quantified after 72 hrs using a CyQUANT assay (Invitrogen).

[5] = test system: full-thickness back-skin wounds in db/db mice; experiment: Mouse diabetic skin wound healing model, histomorphometric analysis; type: in vivo; conditions: fibrin matrix, 100 ng VEGF-A165 and 50 ng PDGF-BB, after 7 d, vs fibrin alone
Method: Histomorphometric analyses were performed as previously reported. Briefly, an area of 8 mm in diameter, which includes the complete epithelial margins, was excised. Wounds were fixed with 2% PFA and cut in the center into two and embedded into paraffin. Histological analysis was performed on 5 μm serial sections. Images were captured with an EVOS FL Auto microscope (Life Technologies). The extent of re-epithelialization and granulation tissue formation were measured by histomorphometric analysis of tissue sections (H&E staining) using ImageJ software. For analysis of re-epithelialization, the distance that the epithelium had traveled across the wound was measured; the muscle edges of the panniculus carnosus were used as an indicator for the initial wound edges, and re-epithelialization was calculated as the percentage of the distance of edges of the panniculus carnosus muscle. For granulation tissue quantification, the area covered by a highly cellular tissue was determined.
Diabetic skin wound healing assays were performed in the mouse as previously reported. Briefly, C57BLKS/J-m/Lepr db (db/db) male mice were 10 to 12 wk old at the start of the experiments. Their backs were shaved and four full-thickness punch biopsy wounds (6 mm in diameter) were created in each mouse. […]

[6] = target: T4, VEGF-A121 (Homo sapiens, UniProt P15692); experiment: vWF binding to recombinant VEGF-A isoforms (ELISA); parameters: All growth factors (GFs) and chemokines were purchased in their mature forms; purchased PeproTech; host or cells: Escherichia coli; conditions: plate coated with 50 nM vWF domains, 1 μg/mL VEGF-A, vs BSA
T4 sequence (P15692 27-147 isoform P15692-9 limits assumed): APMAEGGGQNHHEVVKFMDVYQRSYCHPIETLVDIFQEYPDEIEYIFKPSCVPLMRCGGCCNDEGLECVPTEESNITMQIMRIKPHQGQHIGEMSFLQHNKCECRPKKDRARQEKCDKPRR
Method: ELISA was performed as previously reported1. In brief, ELISA plates (med binding: Greiner Bio-One) were coated with 50 nM BSA (GE Healthcare), pro-peptide containing recombinant vWF (Sino Biological), plasma-derived vWF (EMD Millipore), recombinant human vWF A1 domain (U-Protein Express), recombinant human vWF A2 domain (R & D systems), recombinant human vWF A3 domain (U-Protein Express), vWF A1 HBD peptide or scrambled/mutated HBD peptide (all peptides were synthesized by Genscript). After blocking with 2% BSA solution containing PBS-T, 1 μg/mL of recombinant human VEGF-A121 (PeproTech), recombinant human VEGF-A145 (R & D Systems), or recombinant human VEGF-A165 (PeproTech) was added. Bound VEGF-A was detected with 1 μg/mL of mouse anti-human VEGF-A antibody (clone: 26503, R & D systems). After 60 min of incubation, horseradish peroxidase (HRP) conjugated goat anti-mouse antibody (1:2000 dilution, Dako) was added and incubated for another 60 min. Color development and the absorbance measurement were done as described above.

Substance	binding to VEGF-A165 [1]	binding to CXCL-12γ [2]	binding to PDGF-BB [3]	endothelial proliferation [4]	granulation tissue [5]	wound closure [5]	binding to VEGF-A121 [6]
YIGLKDRKRPSELRRIASQVKYAC [vWF HBD]	showed binding	showed binding	showed binding	did not affect endothelial proliferation	did not differ	did not differ	
vWF: human plasma-derived von Willebrand factor (EMD Millipore)							did not
